The results in this text go back to PMC10485164, “Sequence-specific targeting of Caenorhabditis elegans C-Ala to the D-loop of tRNAAla”.

The target in one data set is T1, Ce-C-Alac K938A (Caenorhabditis elegans, UniProt O01541 757-968, K938A).
T1 sequence: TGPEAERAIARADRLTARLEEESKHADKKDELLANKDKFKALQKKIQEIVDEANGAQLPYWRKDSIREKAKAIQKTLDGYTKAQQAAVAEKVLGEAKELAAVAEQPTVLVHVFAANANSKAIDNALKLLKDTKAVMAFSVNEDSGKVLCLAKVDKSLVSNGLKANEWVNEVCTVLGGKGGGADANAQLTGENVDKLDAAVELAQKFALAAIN
Put plainly: EMSA; 5 mM Mg2+; EMSA: 20 mM Hepes pH 7.5, 20 mM KCl, 5 mM MgCl2, 2 mM DTT, 10 min on ice, 0.1 uM ligand; 5% native PAGE in 0.5x TBE at 4 C; protein 0.125-32 uM. As to conditions: protein: recombinant; tags: His6 (C-terminal, pET21b); label: 5'-32P; tRNA cloverleaf.

For the next data set, the target named is T2, Ce-C-Alac K934A (Caenorhabditis elegans, UniProt O01541 757-968, K934A).
T2 sequence: T1 sequence with K178A, A182K
The data set is described as above. As to conditions: protein: recombinant; tags: His6 (C-terminal, pET21b); label: 5'-32P; tRNA cloverleaf.

Residue numbers refer to the chain shown, from its start.

B1: CetRNAnAla (structured_RNA)
RNA: GGGGGUAUAGCUCAGUGGUAGAGCGCUCCCUUAGCAUGGGAGAGGGCUGGGGUUCAAUUCCCCAUACCUCCACCA
B1: the binding signal was 3 fold lower affinity than WT Ce-C-Alac with Ce-C-Alac K938A and 11 fold lower affinity than WT Ce-C-Alac with Ce-C-Alac K934A.
